Data published in patent US20220072098A1 (priority 2012, published 2022).

Experiment: Tissue distribution of trypsinogen-AlexaFluor-488 after i.v. injection
Format: in vivo, mice
Conditions: 200 μg i.v., 30 min
Experimental: Trypsinogen—AlexaFluor®-488 was injected i.v. in its free form or encapsulated in the bolavesicles. At 30 min after the injection, mice were anesthetized by Xylazine-Ketamine mixture and blood was withdrawn through cardiac puncture, the mouse was perfused with 10 ml PBS and tissues were dissected out. The dissected tissues were attached to labeled paper stripes, frozen in isopentane cooled over liquid nitrogen, and stored at −80° C. The selected tissues were cryosectioned and the fluorescence of the sections was analyzed using confocal fluorescent microscopy. All images were acquired using the same imaging settings and were not corrected or modified. Fluorescence of slices from different organs was quantified by imaging software after subtracting background fluorescence. In effect, for quantifying the fluorescence in the tissue, the average fluorescence obtained from the control mice, which were injected with PBS instead of the fluorescent material was subtracted from the fluorescence values obtained from the same tissue taken from animals that received Trypsinogen-AlexaFluor®-488. At least 4 slices from each organ of each mouse were used for the quantitative analysis and each group contained 4-5 mice.
Prior to delivering GDNF to the brain, pilot experiment, in vivo, studies were carried out with the model protein—trypsinogen, which was labeled for this purpose with AlexaFluor®-488. […]

B1: free labeled protein: free trypsinogen labeled with AlexaFluor-488 (protein, UniProt P00760 18-246, looked up)
pro-form: VDDDDKIVGGYTCGANTVPYQVSLNSGYHFCGGSLINSQWVVSAAHCYKSGIQVRLGEDNINVVEGNEQFISASKSIVHPSYNSNTLNNDIMLIKLKSAASLNSRVASISLPTSCASAGTQCLISGWGNTKSSGTSYPDVLKCLKAPILSDSSCKSAYPGQITSNMFCAGYLEGGKDSCQGDSGGPVVCSGKLQGIVSWGSGCAQKNKPGVYTKVCNYVSWIKQTIASN
modifications: pro-form AlexaFluor-488 label
labeled trypsinogen fluorescence in kidney: high fluorescence
